The target in assay [1] is H3K9ac peptide (Saccharomyces cerevisiae) (UniProt P61830). The following applies: cited from earlier work.
The target of assay [2] is H3K9cr peptide (Saccharomyces cerevisiae) (UniProt P61830). The settings on record: cited from earlier work.
For assay [3], the target named is H3K14ac peptide (Saccharomyces cerevisiae) (UniProt P61830). The following applies: cited from earlier work.
Assay [4] concerns the target Sth1BD (S. cerevisiae) (UniProt P32597). The experiment in a line: ITC; MicroCal ITC200, 20 °C, 25 mM Tris-HCl pH 8.0, 150 mM NaCl; peptides at 2.0 mM in the syringe titrated into reader domain at 0.1-0.2 mM in the cell; one-binding-site model. For orientation: ITC needs no label: the signal is the heat of the interaction.

Chain of Taf14 YEATS (P35189 1-137): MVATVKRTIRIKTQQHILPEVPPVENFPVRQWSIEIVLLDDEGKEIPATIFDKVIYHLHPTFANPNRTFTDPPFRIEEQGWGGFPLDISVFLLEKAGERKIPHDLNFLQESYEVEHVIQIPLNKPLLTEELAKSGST
Chain of Sth1BD (S. cerevisiae) (P32597 1248-1359): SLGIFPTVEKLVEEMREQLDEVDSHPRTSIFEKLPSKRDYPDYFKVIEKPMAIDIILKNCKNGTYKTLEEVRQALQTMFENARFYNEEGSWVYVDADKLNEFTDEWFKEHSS
Chain of Sth1 Bromodomain (P32597 1254-1359): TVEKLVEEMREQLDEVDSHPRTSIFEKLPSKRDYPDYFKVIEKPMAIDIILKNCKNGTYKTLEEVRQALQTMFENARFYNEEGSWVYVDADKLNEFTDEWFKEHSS

For Taf14 YEATS (from UniProt P35189), the Kd was 334 µM in assay [1] and 75 µM in assay [2].

On to Sth1 Bromodomain (from UniProt P32597), for which the Kd in assay [3] was 16 µM.

In assay [4], H3K14bz peptide gave a Kd of 89 µM.

What is called Kd is the equilibrium constant for the complex coming apart.
